Experiments:
[1] = target: T1, subtilisin BPN′ (UniProt P00782 108-382); test: enzyme inhibition kinetics (Ki determination); hydrolysis of N-succinyl-L-Ala-L-Ala-L-Pro-L-Phe-p-nitroanilide by subtilisin BPN′ with PfSUB2PD; Ki determined as in ref. 33; data not shown; conditions: both partners purified
T1 construct: subtilisin BPN′, a bacterial subtilisin; source: bought: Sigma
T1 sequence (looked up): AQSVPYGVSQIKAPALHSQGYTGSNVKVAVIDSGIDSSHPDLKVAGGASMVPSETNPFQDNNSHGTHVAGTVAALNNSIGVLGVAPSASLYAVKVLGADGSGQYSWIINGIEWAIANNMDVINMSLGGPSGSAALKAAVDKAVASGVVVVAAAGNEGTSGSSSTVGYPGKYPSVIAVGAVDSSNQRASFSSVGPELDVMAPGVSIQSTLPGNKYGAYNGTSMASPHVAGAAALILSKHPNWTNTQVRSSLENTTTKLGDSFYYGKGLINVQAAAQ

[2] = target: PfSUB2T, 72-kDa terminal intracellular form of PfSUB2, HA3-tagged (P. falciparum) (UniProt O97364)
Chain of PfSUB2T, 72-kDa terminal intracellular form of PfSUB2, HA3-tagged (P. falciparum) (O97364 688-1342): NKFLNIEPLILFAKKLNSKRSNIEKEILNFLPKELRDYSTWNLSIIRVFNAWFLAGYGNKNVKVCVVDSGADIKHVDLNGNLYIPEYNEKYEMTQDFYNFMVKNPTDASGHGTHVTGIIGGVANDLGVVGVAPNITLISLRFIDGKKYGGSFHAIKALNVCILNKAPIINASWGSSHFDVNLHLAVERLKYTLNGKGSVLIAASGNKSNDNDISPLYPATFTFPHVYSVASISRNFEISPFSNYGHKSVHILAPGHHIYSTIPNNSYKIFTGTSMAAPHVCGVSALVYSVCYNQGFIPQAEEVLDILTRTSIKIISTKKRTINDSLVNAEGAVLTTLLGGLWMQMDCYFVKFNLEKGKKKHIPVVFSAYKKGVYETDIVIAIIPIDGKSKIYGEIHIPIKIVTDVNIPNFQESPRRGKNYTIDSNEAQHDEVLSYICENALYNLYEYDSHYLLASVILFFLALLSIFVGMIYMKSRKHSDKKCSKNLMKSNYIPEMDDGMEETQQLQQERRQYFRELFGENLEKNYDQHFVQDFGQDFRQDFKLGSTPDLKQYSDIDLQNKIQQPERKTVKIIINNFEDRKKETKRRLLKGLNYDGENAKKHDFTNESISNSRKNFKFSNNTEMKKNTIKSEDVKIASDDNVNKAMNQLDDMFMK

B1: PfSUB2PD (recombinant PfSUB2 propeptide, Asn22-Leu687) (domain or fragment)
chain: NNNNNYYLSNIELYNYKLRKRNRILNNNINDRKSFLSDLEQNYKPLFDIYELSANFEKRRKELEKKTKGEENEIEKKKENDLEEKKENEIEKKKENDLEKEYNDVINLLELSLSSEYKELNADVSNNDNSGHEENNKHKLNKKNSSNYKNDKSLDELIKGAILKLKQNPNIKNKNMLDYDKIFKIIKEKLINKNLASNKIKGGDNEKLKEEKKQSDISTNVEVKKDIINDQLNKGIPTKIENKDDMINKESNKEDITNEGKSNSLNNLNTLNNDGNIITKVYDHYTIVTNSNDILNDISIDASDISKNSIGGINIPFNENDNSSFTHQRYIVLSNNGEKKYKIVLMTKNPKFMDMDGIYDEEEKKESLIELNQKVNKEENTNLYDGTGTLYYGKKSKKEKENTQQKGGNNPNVDINILNNNNNNNNNNNNNSNNNSNSMNDEEINYNNNNNKESPSMFRRFINFLSFSGNENETEDTLIYHNKNDNSYKNKKEGTGKNNDNNDPNNNNNKKILLNVDKLVDQYLLNLKNNHTSKQELILVLKGELDLHSKNMKNVINNAKKNLEKYFKEHFKEFDKISYDISTPINFLCIFIPTLFDMNNMDLLKQALLILHNDLHEYVENWSFSSTYHTYEADYIKEQDSVYDRSPKKKYIKASKKLYNNKYSFL
notes: PfSUB2, subtilisin-like protease 2 of P. falciparum T9/96, propeptide region Asn22-Leu687, amplified from the synthetic gene pfsub2synth; Asn22 is the predicted N-terminus after signal peptide removal; Cleavable 46-residue N-terminal fusion peptide with His6 and S-tag, from the vector pET-30Xa/LIC; not shown: His6, N-terminal, kept; S-tag, N-terminal, kept
- Ki [1]: 1200 nM
- IC50 of inhibition of shedding of AMA1 and MSP1 (MESH activity) from isolated 3D7 merozoites; PfSUB2PD titrated from 1.2 μM to 0.075 μM [2]: 300 nM
